We go through 19 sequences from the DeepSol protein solubility set.

A short description of this series: soluble on expression in E. coli; label from the status in PepcDB or PDB records.
Regarding “MQVISPSSPAPRFAGKERFSEVYGELNDDFGSKLKISSKEEENRDDDSWWNQNGTDKDDEGREEDFSFASVNADNSPITADEAFEDGQIRPVYPLFNRNIFFDDPEEKTLRSPLKKLFVESTTTEEEEEESDTVGPYCSWTNRTVEQASPETCRKSNSTGFSKLWRFRDLVLRSNSDGKDAFVFLSNGSSSTSSTSSTAARLSGVVKSSEKGKEKTKTDKKKDKMRTKSAHEKLYMRNRAMREEGKRRSYLPYKHVGFFTNVNGLTRNVHPY”, the “soluble on expression in E. coli” value is on record as “soluble”. The entry for “MQVNRLPFFTNHFFDTYLLISEDTPVGSSVTQLLARDMDNDPLVFGVSGEEASRFFAVEPDTGVVWLRQPLDRETKSEFTVEFSVSDHQGVITRKVNIQVGGVNDNAPTFHNQPYSVRIPENTPVGTPIFIVNATDPDLGAGGSVLYSFQPPSPFFAIDSARGIVTVIQELDYEVTQAYQLTVNATDQDKTRPLSTLANLAIIITDLEHHHHHH” is “soluble”; for “MQVSDFHFELPDELIARYPKAERTASRLLQLDGNSGQLVDGTFKDVLELVEPGDLLVFNNTRVIPARMFGRKASGGKLEVLVERMLDEHTILAHVRSSKPPKPGTELYLGENDEFHAVMQARHDALFEIRFTAETVVLDILNQIGHMPLPPYIDRPDEEADKERYQTVYNQKPGAVAAPTAGLHFDQALLEQIQAKGVELAYVTLHVGAGTFQPVRVENIHDHHMHAEYVEVPQEVVDAITATKARGGRVVAVGTTSVRSLESAAQDALQKGTELKPFFGDTEIFIFPGYQYQLVDCLITNFHLPESTLIMLVSAFAGYEHTMAAYEHAVKEQYRFFSYGDAMFIRKQMTKA” it is “not soluble”; for “MQVSLPREDTVYIGGALWGPATTWNLYAPQSTWGTDQFMYLPAFQYDLGRDAWIPVIAERYEFVDDKTLRIYIRPEARWSDGVPITADDFVYALELTKELGIGPGGGWDTYIEYVKAVDTKVVEFKAKEENLNYFQFLSYSLGAQPMPKHVYERIRAQMNIKDWINDKPEEQVVSGPYKLYYYDPNIVVYQRVDDWWGKDIFGLPRPKYLAHVIYKDNPSASLAFERGDIDWNGLFIPSVWELWEKKGLPVGTWYKKEPYFIPDGVGFVYVNNTKPGLSDPAVRKAIAYAIPYNEMLKKAYFGYGSQAHPSMVIDLFEPYKQYIDYELAKKTFGTEDGRIPFDLDMANKILDEAGYKKGPDGVRVGPDGTKLGPYTISVPYGWTDWMMMCEMIAKNLRSIGIDVKTEFPDFSVWADRMTKGTFDLIISWSVGPSFDHPFNIYRFVLDKRLSKPVGEVTWAGDWERYDNDEVVELLDKAVSTLDPEVRKQAYFRIQQIIYRDMPSIPAFYTAHWYEYSTKYWINWPSEDNPAWFRPSPWHADAWPTLFIISKKSDPQPVPSWLGTVDEGGIEIPTAKIFEDLQKATMHHHHHH” it is “soluble”. Regarding “MQVSVTGDFVGHIQELIRTEVLPYQWEALNDQIAGAEPSHCLDNFRAAAEKKGHIQFHGQPFQDSDIYKWIEAAAYTLAWHPDSDLEAKADQAIELICGAQQPDGYLNTYFILTGAQRWTHLLDGHELYCAGHLMEAAVAYYHATGKDKLLKAAQKLADHIADVFGTSPGKIPGYPGHPEVELALIRLFEATGNIKYQQLAQYFICQRGASPSIFRKEADQFGWDWADSPFQFQFYQAGKPILEQTELEGHAVRALYLCCGIADVAARTQDAALLETCRRLWEDLTQTKLYITGGAGSSVYGEAFTFAYDLPNDTAYAETCAAVAVCFFAQRMMKISPSGAYGDVLEQALYNGVLSGMALDGKSFFYVNPLEVVPEACQKDQRKKHVKPIRQKWFACACCPPNLARLFASIGGYLHFIRAETLYTNLYVTSTSEFTFQGLPIKLHMDSAYPFDEKIHISLSLPRPMEFSYAVRIPAWCADYHVLINGKICAGTLKDGFLYLHRCWRDGDEVELTLSMPVRVVRANSLVRENIGKSAICRGPIVYCMEQLEHHHHHH”, the “soluble on expression in E. coli” value is given as “not soluble”. Then “MQYDYLEALVKDLSLYKIKTEINMKNLRIWQTLSLWLVLLVTSLPLSAQTALLEKLGKIADITGTQPLESTEFVEKYVAYFTQPLDHRHPEKGSFSQRVIVSHVGFDRPTVMVTEGYGASYALGANYREELSKLFNTNMIFVEYRYFLESTPTPKDWQYLTAENSAEDLHAVREAFRSIYPGKWIATGISKGGQTAMLYRTFFPEDVDISVPYVAPLCYGVEDGRHEPFLKMVSTPEARKKIEDFQLEVLKRKPTLLPRFEKYCAGKKYKFRAPVEEIYDYSVLEYSFSIWQWGTPVDQIPAVTASDDELFKHLLAISEPSYFEEEGANTSFFVQAARELGYYGYDIRPFKKYLTIKTSKDYLKRLMLPEELGDMKFDKTLSRKIIHFLKNNDPKMIFIYGQNDPWTAAGVTWLKGKKNIHVFVEPNGSHLARIGTLPQKEKEEAIGLIKKWLEE”, with “not soluble”; and “MQYVAYAEGAKMASGAAKETSSNLFGIWDTWNSNPQMRKDHANELKKKSDEAYNNDMEELKKTRSAFDQEIAKRHAAADMQMSELVKSNNTELKTLQDQFNRDEASHGMAMKMMVREHAEKMKELRSEGREAQERAEREHRMKMSEAEEEHRKEKEIAQEKMDAAKREGSMKIALVEEEKQKIMKERSDELEKYTREMNEMAKNHQEERKKHNAIIGQKKMEMIGSKRDQLKIESEKILESMRNDINLLLAVEIKQNGSHLVEKLIDLFESVKTVKCLMDTVQTELTTIGDEVPEITPGQLSTFDDIKRHKTLFDNRVARFRKNVVTSSFTDAKLYEICMTTVSDFEKIMDKQDMKLVCHHLPKAVENQDFKKIKYYADMASKLNNQFSQEVQHLAAGFSNVSKTYAIDRSNQAAIQN”, with “not soluble”.

Consider “MRAIRVHEVGGPEVLRLEELPVPEPGPGEVLVRLLAIGVNFIDTYKRKGLYPVPAPFTLGEEGAGVVEKVGEGVVGVRPGDRVAFANVQGAYAEYLVVPAERLVPVPEGLDPKLAAAALLQGMTVHYLLKSTYPVAPGDQVLVHAGAGGVGQLLIQWAKRLGATVYATASTEEKRGLCLQAGADYALPYEGFAEAVKALSGGGVDVVYDGVGKDTFLGSLAALRPRGMLVLFGQSSGPVPPQDPQILNRMGSLFLTRPTLHHYTASRKELLFRPGEVFRGVLKGWLKVRIGAEFPLENARKGPRGPRGPKDHGQGPPPALGRGNRAHFSGSGVVYYGPFQGLM”, for which the “soluble on expression in E. coli” value is “soluble”. “MRAKKRKFLQKEELSKLLQSLDMSQIGFGWFVMLVAKTGMRYAEALAITPADFDWTAQTISINKTWDYKYNKGFAKTKTLSSVRTIKIDWQIVGQFKPLIKDFPEDEPIFVEKFGDGTYKRQFNSTINNFLAVKCNETGITQISFHALRHTHASVLLAEGVSIHTISARLGHADVGVTQETYALEHHHHHH”: the “soluble on expression in E. coli” value is “soluble”. The entry for “MRALRRGKGITLKQLAKALNKNISRGEAKNTESQIGNWERGERNPNYLEVKKLADYFDVSIDYLVGRYNNDQVDLAKAMITSSKLTYNDTPLDNNDKYEILQLISGYLHARGRRSTGDLININHQESLDLFNNQNDF” is “not soluble”; for “MRAPLSTYRRPQRTDFVTPTGGPFFAKQDKALNTIDLKMAHDLKLRGYRVKVAVVDEGVRSDHPLLNVEKKYGGDYMADGTRTYPDPKRQGRHGTSVALVLAGQDTDTYRGGVAPNADLYSANIGTRAGHVSDEAAFHAWNDLLGHGIKIFNNSFATEGPEGEQRVKEDRNEYHSAANKQNTYIGRLDRLVRDGALLIFAAGNGRPSGRAYSEVGSVGRTPRVEPHLQRGLIVVTAVDENGRLETWANRCGQAQQWCLAAPSTAYLPGLDKDNPDSIHVEQGTSLSAPLVTGAAVLVQDRFRWMDNDNLRTTLLTTAQDKGPYGVDPQYGWGVLDVGRAVQGPAQFAFGDFVARVTDTSTFGLEHHHHHH” it is “not soluble”; for “MRAPRWLWLVILLSGSAAADWREVLPNAQVVGGGELTLFGFRVYTARLLSPAKPFVADAPMALELTYHRNIDREDLVDASIDEIKRISGARVTTEQLAAWREQMNQSFVDVQPGMKITGVYLPGREARFYVGDKLQHVVPDSQFAKAFFSIWLDPKTRNPELREQLLGSTGS” it is “not soluble”. The entry for “MRASRKRLHTTNLRWNMSQKHWSKVQLLHEVVKNPNIIIKGKHSYYSDCWDAGFEASVVRYLHGDEISQRWDPLWEIDQLVIGDYVCIGAEVVILMGGNHTHRADWFCLYPFMDVIEQAYVGKGNTEIGDGAWLGMRAMIMPGVKIGEGAIVAANSVVTKDVAPYSIVAGSPAQLVKYRFDAKVIDELLALKVYDWPPEKFTALKSYLCALDLAALKQAVIQYDAEPHNPLS” is “not soluble”. Then “MRCMSDDHTHVQEFFEARAADWDSRFPDDGPAHAAAVAELGLREGDRVLDAGCGTGRALPSLRAAVGSSGVVVGVDLTPAMLAAAARAGRGRDGHLLLADVTRLPLGTESLDAVFAAGLIAHLPEPAENLRELARVVRAGGTLALFHPIGRAALAARQGRQITPDDLRAEANLGPLLAGSGWRMTSYVDEDARFLALAVRVKLEHHHHHH”, with “not soluble”; and “MRDALLGALDAGAVCVNVDLAHAGQQAKLEPDTPYGDALGVGAGRNWAHVNSIAYDAKDDSIILSSRHQGIVKIGRDKQVKWILAPSKGWNKQLASKLLKPVDDHGKPLTCDENGKCKDTDFDFTYTQHTAWLSSKGTLTVFDNGDGRGLEQPALPTMKYSRFVEYKIDEKKGTVQQVWEYGKERGYDFYSPITSVVEYQKDRDTMFGFGGSINLFDVGKPTVGKLNEIDYKTKEVKVEIDVLSDKPNQTHYRALLVHPTQMFKLEHHHHHH”, with “soluble”; and “MRDAQRPDLSTTFTVLLAGGRGSRLHELTSRECKPALPFAGPRRIVDFTLANAARSGLTRMIVATQYRPETLAHHLESRWASRFAGGSLRLREGTAVTGSPQGYGGTAAAVAANLAELQSEGVRELVVLAADHVYEMDYADMVAAHRASGASATVAVDTVPTDRASEFGVVRTSEGGRIESFLEKPAVVPADPAIPGRAQVSMGIYVFDLDWLASVLRIIPGATQDFGHDILPLAVALGEAHAYRVPGDNFYWRDVGTLDAYRLAQLEFQTGEAPCALPPRIAASEHEMKAATGELIQFAFRMQTGGIALHSPRLGGDLPGRWTMLDESVLLPGARVAPGVRLTRTIVAPGTSVPAGLVIGEDPDEDARWFRRTEEGTVLVTTPMLARRAADRGRLVAPFADSRMGRSALEHHHHHH”, with “not soluble”.

As to “MRDFGEILAENRKKKGYSQSDLVNLLSQEGIQVTTKALSKWENNAREPALHVFLTLCQLLDIEDIYESFFGENPYNIMSGLNEEGRNKLIEFADILKASKKFSPLSAKIIPFHHPVEITWEPVSAGTGNYLEDSVKETYDVGHLAPEQTDFGVRISGDSMEPLYHTDDVAWIQKKDSLANGEIGIFYLNGNTYIKELHDEPDGVYLISLNQKYRPIQVLESDSFKIFGKVIGKCKGAEIPGFHLEHHHHHH”, the “soluble on expression in E. coli” value is “soluble”. Take “MRDLFDEVAGKSPLDPNEAVRRTSRAQLPKRFYTEAGVAEENGGFAVRLDGRAVKTPSRNALAAPDRALAEAIAAEWQAQGETIDPSTMPLTRLANSVIDGVAGRVEAVTDDIAKYFGSDLLFYRAEHPEELIAREGAHWDPVLFWAKDALGAHFILAQGIVHVGQPETALAAARAALPADPWLLGALHVVTTITGSALLALALAHGRLEADQVWAAAHVDEDWNIEQWGLDEEAAARRAAKQAEFAAAAQVIAALGSRRSAAALEHHHHHH”: the “soluble on expression in E. coli” value is listed as “not soluble”.

In the case of “MRDPLCDESYLLKTIESNRKFISKRKEKIIGLKADIENGIQRYPRDNQSIIYITFSQMFMYGMNMLLAKYSLGNHPDTMIDDYLDNITYLENCGEEEAGYINLLWMVGLGILLEMDKEVLKRLARVIERQRIEDALMDFLLKACDIGWNHSTTKYEKKNPYEKTVEIIKIALHDKDKEAASKRLEKYMEKEWFKGHYDFGWRNAHKEPGYYGFWSFDTAALAKILGLDDSALKDNNHYPYDLAHYKNGMTFDLSWYSEPREEEVREETVVYGIPGNPLLERIIPGRFHSFVNEIINDYKTLPDEEFWKKYNLKEIWFDVEEYKEDNKDKNLLGTIIVFMLVDKDYILQLDYKEELIDYIENIHNYWPKEEVKLISFELDNDQQYYAYVPKDAEAGSLYEVKVTEVEKIEEV”, the “soluble on expression in E. coli” value was “not soluble”.
